In patent US20140087995A1 (published 2014):
Numbered stars: 1 amine (or outer) side, 2 acyl side, 3 side chain; on linkers, the order of the positions; unused ones are H or OH. Bridge positions count the residues as written; N and C are the ends. Side chains are listed from the residue outwards. Ends that are not written are not given here. * marks the point of attachment. C20 diacid = O=C(O)CCCCCCCCCCCCCCCCCCC(=O)*; γGlu = O=C(O)[C@H](CCC(=O)[*:2])N[*:1]

What was measured:
rat calcitonin receptor [1] = biological target: T1, rat calcitonin receptor (rat, UniProt P32214 25-516); test: IC50 on rat CTR divided by IC50 on rat amylin receptor (Assays VIII/VI)
T1 construct: whole, on cells; Used as membranes prepared from BHK tk'ts 13 cells transiently transfected with the rat calcitonin receptor (Assay VIII); also called rCTR; rat calcitonin (a) receptor
T1 sequence (looked up): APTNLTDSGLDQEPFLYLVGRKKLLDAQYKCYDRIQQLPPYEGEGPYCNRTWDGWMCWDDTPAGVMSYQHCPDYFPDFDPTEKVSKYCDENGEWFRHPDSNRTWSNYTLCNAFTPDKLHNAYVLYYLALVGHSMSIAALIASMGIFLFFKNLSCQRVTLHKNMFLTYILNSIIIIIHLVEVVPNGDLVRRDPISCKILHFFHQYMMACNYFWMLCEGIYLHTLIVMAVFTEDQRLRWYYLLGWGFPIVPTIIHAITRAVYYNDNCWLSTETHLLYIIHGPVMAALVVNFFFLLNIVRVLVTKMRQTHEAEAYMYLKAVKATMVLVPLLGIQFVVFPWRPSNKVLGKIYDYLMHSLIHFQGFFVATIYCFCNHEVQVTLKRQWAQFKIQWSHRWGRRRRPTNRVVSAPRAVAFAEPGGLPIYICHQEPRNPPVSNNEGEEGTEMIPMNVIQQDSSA

[2] = biological target: T2, rat amylin receptor (rat calcitonin receptor + rat RAMP 3) (rat, UniProt P32214 25-516; Q9JJ73 23-147); test: SPA competition with 125I-rat amylin, membranes of BHK cells with rat CTR + rat RAMP3 (Assay VI)
T2 construct: whole, on cells; Used as membranes prepared from BHK tk'ts 13 cells transiently transfected with rat calcitonin receptor and rat RAMP 3 (Assay VI); also called rAmylin-R; rat amylin 3(a) receptor
T2 sequence (looked up) 1: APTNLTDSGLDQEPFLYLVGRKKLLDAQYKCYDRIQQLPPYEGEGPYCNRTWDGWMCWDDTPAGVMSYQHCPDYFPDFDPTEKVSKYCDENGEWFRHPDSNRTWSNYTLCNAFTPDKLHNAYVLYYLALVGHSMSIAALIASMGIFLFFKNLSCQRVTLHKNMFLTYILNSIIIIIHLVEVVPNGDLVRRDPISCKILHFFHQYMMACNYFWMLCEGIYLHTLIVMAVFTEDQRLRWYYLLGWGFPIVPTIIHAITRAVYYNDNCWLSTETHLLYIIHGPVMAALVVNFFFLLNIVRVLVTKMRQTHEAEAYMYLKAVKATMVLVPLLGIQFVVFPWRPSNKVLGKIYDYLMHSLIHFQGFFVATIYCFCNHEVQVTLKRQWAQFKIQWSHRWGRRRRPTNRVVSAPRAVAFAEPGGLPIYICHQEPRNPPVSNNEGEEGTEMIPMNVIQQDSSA
T2 sequence (looked up) 2: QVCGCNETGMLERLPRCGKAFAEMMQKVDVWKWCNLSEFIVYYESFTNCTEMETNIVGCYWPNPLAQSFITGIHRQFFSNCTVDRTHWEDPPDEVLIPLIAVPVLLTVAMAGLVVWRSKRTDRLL

[3] = biological target: T3, human calcitonin receptor (human, UniProt P30988 25-474); test: IC50 on human CTR divided by IC50 on human amylin receptor (Assays VII/V)
T3 construct: whole, on cells; Used as membranes prepared from a BHK tk'ts 13 cell line stably transfected with the human calcitonin receptor (Assay VII); also called hCTR; hCT
T3 sequence (looked up): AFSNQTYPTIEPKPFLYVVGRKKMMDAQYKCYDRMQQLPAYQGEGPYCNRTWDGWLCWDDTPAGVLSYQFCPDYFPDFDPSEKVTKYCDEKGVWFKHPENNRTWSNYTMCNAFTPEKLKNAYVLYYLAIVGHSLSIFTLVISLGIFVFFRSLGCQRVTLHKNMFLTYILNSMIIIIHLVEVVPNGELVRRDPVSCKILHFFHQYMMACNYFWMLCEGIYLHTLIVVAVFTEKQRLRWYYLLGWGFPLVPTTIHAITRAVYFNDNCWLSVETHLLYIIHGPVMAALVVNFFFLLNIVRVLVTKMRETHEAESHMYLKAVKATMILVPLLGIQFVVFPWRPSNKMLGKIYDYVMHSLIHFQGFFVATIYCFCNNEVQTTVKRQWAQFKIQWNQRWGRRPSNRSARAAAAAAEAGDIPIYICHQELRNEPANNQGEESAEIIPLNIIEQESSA
Outline: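 Competition binding by SPA uses membrane preparations (35 ng/μL final) in pH 7.4 Hepes buffer with 1 mM CaCl2 and 5 mM MgCl₂. Incubation lasts 120 min at 25° C, and IC₅₀ comes from one-site fitting.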

rat calcitonin receptor [4] = biological target: T1, rat calcitonin receptor; test: SPA competition with 125I-calcitonin, membranes of BHK cells with rat CTR (Assay VIII)

Row | Ratio rCT/rAmylin binding (rat calcitonin receptor [1]) | IC50 [2] | Ratio hCT/hAmylin binding [3] | IC50 (rat calcitonin receptor [4]) | Binder
1 | 93.2 | 1.16 nM | 82.4 | 108 nM | K([γGlu-C20 diacid])CNTATCATQRLARFLRHSSPNFGAIPSSTNVGPNTY-NH2 (disulfide 2-7; N-terminus assumed; SMILES CC[C@H](C)[C@H](NC(=O)[C@H](C)NC(=O)CNC(=O)[C@H](Cc1ccccc1)NC(=O)[C@H](CC(N)=O)NC(=O)[C@@H]1CCCN1C(=O)[C@H](CO)NC(=O)[C@H](CO)NC(=O)[C@H](Cc1c[nH]cn1)NC(=O)[C@H](CCCNC(=N)N)NC(=O)[C@H](CC(C)C)NC(=O)[C@H](Cc1ccccc1)NC(=O)[C@H](CCCNC(=N)N)NC(=O)[C@H](C)NC(=O)[C@H](CC(C)C)NC(=O)[C@H](CCCNC(=N)N)NC(=O)[C@H](CCC(N)=O)NC(=O)[C@@H](NC(=O)[C@H](C)NC(=O)[C@@H]1CSSC[C@H](NC(=O)[C@@H](N)CCCCNC(=O)CC[C@H](NC(=O)CCCCCCCCCCCCCCCCCCC(=O)O)C(=O)O)C(=O)N[C@@H](CC(N)=O)C(=O)N[C@@H]([C@@H](C)O)C(=O)N[C@@H](C)C(=O)N[C@@H]([C@@H](C)O)C(=O)N1)[C@@H](C)O)C(=O)N1CCC[C@H]1C(=O)N[C@@H](CO)C(=O)N[C@@H](CO)C(=O)N[C@H](C(=O)N[C@@H](CC(N)=O)C(=O)N[C@H](C(=O)NCC(=O)N1CCC[C@H]1C(=O)N[C@@H](CC(N)=O)C(=O)N[C@H](C(=O)N[C@@H](Cc1ccc(O)cc1)C(N)=O)[C@@H](C)O)C(C)C)[C@@H](C)O, Analogue of human amylin; also called compound 65)
2 | 21.5 | 1.65 nM | 46.1 | 35.5 nM | K([γGlu-C20 diacid])CNTATCATQRLANFLRHSSPNFGAIPSSTNVGRNTY-NH2 (disulfide 2-7; N-terminus assumed; SMILES CC[C@H](C)[C@H](NC(=O)[C@H](C)NC(=O)CNC(=O)[C@H](Cc1ccccc1)NC(=O)[C@H](CC(N)=O)NC(=O)[C@@H]1CCCN1C(=O)[C@H](CO)NC(=O)[C@H](CO)NC(=O)[C@H](Cc1c[nH]cn1)NC(=O)[C@H](CCCNC(=N)N)NC(=O)[C@H](CC(C)C)NC(=O)[C@H](Cc1ccccc1)NC(=O)[C@H](CC(N)=O)NC(=O)[C@H](C)NC(=O)[C@H](CC(C)C)NC(=O)[C@H](CCCNC(=N)N)NC(=O)[C@H](CCC(N)=O)NC(=O)[C@@H](NC(=O)[C@H](C)NC(=O)[C@@H]1CSSC[C@H](NC(=O)[C@@H](N)CCCCNC(=O)CC[C@H](NC(=O)CCCCCCCCCCCCCCCCCCC(=O)O)C(=O)O)C(=O)N[C@@H](CC(N)=O)C(=O)N[C@@H]([C@@H](C)O)C(=O)N[C@@H](C)C(=O)N[C@@H]([C@@H](C)O)C(=O)N1)[C@@H](C)O)C(=O)N1CCC[C@H]1C(=O)N[C@@H](CO)C(=O)N[C@@H](CO)C(=O)N[C@H](C(=O)N[C@@H](CC(N)=O)C(=O)N[C@H](C(=O)NCC(=O)N[C@@H](CCCNC(=N)N)C(=O)N[C@@H](CC(N)=O)C(=O)N[C@H](C(=O)N[C@@H](Cc1ccc(O)cc1)C(N)=O)[C@@H](C)O)C(C)C)[C@@H](C)O, Analogue of human amylin; also called compound 79) [N^ε1-[(4S)-4-carboxy-4-(19-carboxynonadecanoylamino)butanoyl]-[Arg17,Pro21,Pro27,Arg34]-h-amylin]
3 | 137 | 1.5 nM | 118 | 205 nM | K([γGlu-C20 diacid])CNTATCATQRLANFLRHSSPNFGAIPSSTNVGHNTY-NH2 (disulfide 2-7; N-terminus assumed; SMILES CC[C@H](C)[C@H](NC(=O)[C@H](C)NC(=O)CNC(=O)[C@H](Cc1ccccc1)NC(=O)[C@H](CC(N)=O)NC(=O)[C@@H]1CCCN1C(=O)[C@H](CO)NC(=O)[C@H](CO)NC(=O)[C@H](Cc1c[nH]cn1)NC(=O)[C@H](CCCNC(=N)N)NC(=O)[C@H](CC(C)C)NC(=O)[C@H](Cc1ccccc1)NC(=O)[C@H](CC(N)=O)NC(=O)[C@H](C)NC(=O)[C@H](CC(C)C)NC(=O)[C@H](CCCNC(=N)N)NC(=O)[C@H](CCC(N)=O)NC(=O)[C@@H](NC(=O)[C@H](C)NC(=O)[C@@H]1CSSC[C@H](NC(=O)[C@@H](N)CCCCNC(=O)CC[C@H](NC(=O)CCCCCCCCCCCCCCCCCCC(=O)O)C(=O)O)C(=O)N[C@@H](CC(N)=O)C(=O)N[C@@H]([C@@H](C)O)C(=O)N[C@@H](C)C(=O)N[C@@H]([C@@H](C)O)C(=O)N1)[C@@H](C)O)C(=O)N1CCC[C@H]1C(=O)N[C@@H](CO)C(=O)N[C@@H](CO)C(=O)N[C@H](C(=O)N[C@@H](CC(N)=O)C(=O)N[C@H](C(=O)NCC(=O)N[C@@H](Cc1c[nH]cn1)C(=O)N[C@@H](CC(N)=O)C(=O)N[C@H](C(=O)N[C@@H](Cc1ccc(O)cc1)C(N)=O)[C@@H](C)O)C(C)C)[C@@H](C)O, Analogue of human amylin; also called compound 77) [N^ε1-[(4S)-4-carboxy-4-(19-carboxynonadecanoylamino)butanoyl]-[Arg17,Pro21,Pro27,His34]-h-amylin]
4 | 122 | 0.215 nM | 45.2 | 26.3 nM | K([γGlu-C20 diacid])CNTATCATQRLANFLRHSSPNFGAIPSSTNVGSHTY-NH2 (disulfide 2-7; N-terminus assumed; SMILES CC[C@H](C)[C@H](NC(=O)[C@H](C)NC(=O)CNC(=O)[C@H](Cc1ccccc1)NC(=O)[C@H](CC(N)=O)NC(=O)[C@@H]1CCCN1C(=O)[C@H](CO)NC(=O)[C@H](CO)NC(=O)[C@H](Cc1c[nH]cn1)NC(=O)[C@H](CCCNC(=N)N)NC(=O)[C@H](CC(C)C)NC(=O)[C@H](Cc1ccccc1)NC(=O)[C@H](CC(N)=O)NC(=O)[C@H](C)NC(=O)[C@H](CC(C)C)NC(=O)[C@H](CCCNC(=N)N)NC(=O)[C@H](CCC(N)=O)NC(=O)[C@@H](NC(=O)[C@H](C)NC(=O)[C@@H]1CSSC[C@H](NC(=O)[C@@H](N)CCCCNC(=O)CC[C@H](NC(=O)CCCCCCCCCCCCCCCCCCC(=O)O)C(=O)O)C(=O)N[C@@H](CC(N)=O)C(=O)N[C@@H]([C@@H](C)O)C(=O)N[C@@H](C)C(=O)N[C@@H]([C@@H](C)O)C(=O)N1)[C@@H](C)O)C(=O)N1CCC[C@H]1C(=O)N[C@@H](CO)C(=O)N[C@@H](CO)C(=O)N[C@H](C(=O)N[C@@H](CC(N)=O)C(=O)N[C@H](C(=O)NCC(=O)N[C@@H](CO)C(=O)N[C@@H](Cc1c[nH]cn1)C(=O)N[C@H](C(=O)N[C@@H](Cc1ccc(O)cc1)C(N)=O)[C@@H](C)O)C(C)C)[C@@H](C)O, Analogue of human amylin; also called compound 60) [N^ε1-[(4S)-4-carboxy-4-(19-carboxynonadecanoylamino)butanoyl]-[Arg17,Pro21,Pro27,His35]-h-amylin]
5 | 119 | 0.523 nM | 37.5 | 62 nM | K([γGlu-C20 diacid])CNTATCATQRLAEFLRHSSPNFGAIPSSTNVGSRTY-NH2 (disulfide 2-7; N-terminus assumed; SMILES CC[C@H](C)[C@H](NC(=O)[C@H](C)NC(=O)CNC(=O)[C@H](Cc1ccccc1)NC(=O)[C@H](CC(N)=O)NC(=O)[C@@H]1CCCN1C(=O)[C@H](CO)NC(=O)[C@H](CO)NC(=O)[C@H](Cc1c[nH]cn1)NC(=O)[C@H](CCCNC(=N)N)NC(=O)[C@H](CC(C)C)NC(=O)[C@H](Cc1ccccc1)NC(=O)[C@H](CCC(=O)O)NC(=O)[C@H](C)NC(=O)[C@H](CC(C)C)NC(=O)[C@H](CCCNC(=N)N)NC(=O)[C@H](CCC(N)=O)NC(=O)[C@@H](NC(=O)[C@H](C)NC(=O)[C@@H]1CSSC[C@H](NC(=O)[C@@H](N)CCCCNC(=O)CC[C@H](NC(=O)CCCCCCCCCCCCCCCCCCC(=O)O)C(=O)O)C(=O)N[C@@H](CC(N)=O)C(=O)N[C@@H]([C@@H](C)O)C(=O)N[C@@H](C)C(=O)N[C@@H]([C@@H](C)O)C(=O)N1)[C@@H](C)O)C(=O)N1CCC[C@H]1C(=O)N[C@@H](CO)C(=O)N[C@@H](CO)C(=O)N[C@H](C(=O)N[C@@H](CC(N)=O)C(=O)N[C@H](C(=O)NCC(=O)N[C@@H](CO)C(=O)N[C@@H](CCCNC(=N)N)C(=O)N[C@H](C(=O)N[C@@H](Cc1ccc(O)cc1)C(N)=O)[C@@H](C)O)C(C)C)[C@@H](C)O, Analogue of human amylin; also called compound 51)
